These results are taken from patent US20260256840A1.

Assay [1] addresses NY-ESO TCR with the D111K modification in the TRBC constant region (human). In words: anti-TCR negative selection of T cells, flow cytometry. For orientation: In flow cytometry, cells or beads pass a laser one at a time.
Assay [2] addresses HIT receptor with the D111K mutation in the TCR beta constant region (human). In words: anti-TCR bead negative selection of T cells, cell count and flow cytometry (FIG. 7).
The target of assay [3] is unmodified NY-ESO TCR (wild-type TCR beta constant domain) (human). In words: flow cytometry of CD8+ T cells, FITC-BW242/412 against PE NY-ESO dextramer (FIG. 9).
In assay [4] the target is NY-ESO TCR with the D111K modification in the TRBC constant region (human). The description is as above.

In the case of BW242/412 anti-TCR antibody, the % recovery post purification (BW242/412 negative selection) in assay [1] was 80%. Besides, the % recovery of HIT+ cells after BW242/412 negative selection (cells not bound by the antibody) in assay [2] was 57.7%. Also, the % of the NY-ESO dextramer-positive population not stained by the anti-TCR antibody was 0% in assay [3] and 60% in assay [4].
